Results published in the nanobody polyreactivity screen of Harvey et al. (2022).

Experiment: yeast display, Sf9 membrane polyspecificity reagent, FACS + sequencing; frameworks hold sequencing errors
In short: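 Genes from sorted yeast were amplified by colony PCR, read by MiSeq 2 × 250 sequencing and filtered on CDR length. These cells carried a synthetic nanobody library in Saccharomyces cerevisiae BJ5465 and were sorted by FACS into low and high (top ~1%) gates on anti-HA and streptavidin fluorescence. Polyreactivity is labelled according to the gate of origin.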

Sequence | polyreactivity (PSR sort gate)
QVQLVESGGGLVQAGGSLRLSCAASGRTFFKYAMGWYRQAPGKERELVAAITWGGDRTFYADSVKGRFTISRDNAKNTVYLQMNSMKADETAVYYCAAEVLPNVYVYQSARGFYYWGQGTQVTVSS | high polyreactivity
QVQLVESGGGLVQAGGSLRLSCAASGFIFSLNAMGWYRQAPGKEREFVASITWSGTRTYYADSVKGRFTISRDNAKNTVYLQMNSLKPEDTAVYYCAARTKRSYEYQAFYYWGQGTQVTVSS | high polyreactivity
QVQLVESGGGLVQAGGSLRLSCAASGRIFSDYAMGWYRQAPGKERELVAVISWDGTNTYYADSVKGRFTISRDNAKNTVYLQMNSLKPEDTAVYYCAATGTSYYSAYDYWGQGTQVTVSS | low polyreactivity
QVQLVESGGGLVQAGGSLRLSCAASGRTCSNYAMGWYRQAPGKERELVAAISYSVGSTYYADSVKGRFTIARDNAKNTVYLQMNSLKPEDTAVYYCNAKSRPHYAWYRYDYWGQGTQVTVSS | high polyreactivity
QFQLVESGGGLVQAGGSLRLSCAASGRIFVYNDMVWYRQAPGKEREFVATITSSGGRTYYADSVKGRFTISRDNAKNTVYLQMNRLKPEDTAVYYCNKVGYSNLLGYDYWGQGTQVTVSS | high polyreactivity
QVQLVESGGGLVQAGGSLRLSCAASGRTFGYNAMGWYRQAPGKERELVATITWNGGRTYYADSVKGRFTISRDNAKNTVYLQMNSLKPEDTAVYYCAKGYPIIGRHGHWGQGTQVTVSS | high polyreactivity
QVQLVESGGGLVQAGGSLRLSCAASGIIFERNAMGWYRQAPGKERELVAAITTSGDSTYYADSVKGRFTISRDNAKNTVYLQMNSLKPEDTAVYYCAVEGVIWSFWPYEYWGQGTQVTVSS | high polyreactivity
QVQLVESGGGLVQAGGSLRLSCAASGAIFFSYAMGWYRQAPGKERELVAAIRTNGGTTYYADSVKGRFTISRDNAKNTVYLQMNSLKPEDTAVYYCAALPGGYYDRGEYDYWGQGTQVTVSS | low polyreactivity
QVQLVESGGGLVQAGGSLRLSCAASGSTFANNDMGWYRQAPGIEREMVADIRSGGNTNYADSVKGRFTISRDNAKNTVVLQMHSVKPEDTAVYYCATDGYRIDVYQPDYRYDYWGQGTQVTVSS | low polyreactivity
QVQRVESGGGLVQAGGSLRLSCAASGRIFALYARGWYRQAPGKEREWVAAISWSGGSTFYADSVKGRFTSSRDTAKNTVYLQMTSLKPEEPAVYYCNKDHLVYPSEFYYWGQGTQVTVSS | low polyreactivity
QVQLVESGGGLVQAGGSLRLSCAASGRIFYSYAMGWYRQAPGKEWELVAVNTGGGRTYYADSVKGRFTISRDNAKNTVYLQMNSLKPEDTAVYYCAYRYGGTFRYDYWGQGTQVTVSS | high polyreactivity
QVQLGESGGGLVQAGGSLRLSCAASGRTFYTNARGWYRQAAGKARELAADISRGGTTYYADSVKGRFTISRDNAKNTVYLQMNSLKPQDTAVYYSAAEGHELTEGDSWGQGTQVTVSS | low polyreactivity
QVQLVDSGRGLVQAGGSLRLSCAASGHIFLYYTMAWYRQAPGKERELVAGITIGGSTIYADSVKGRFTISRDNAKNSVYLQMNSMKPEDTAVYYCNVVNYVFIYSYWEYYYWGQGTEVTVSS | low polyreactivity
QVQLVESGGGLVQAGGSLRLSCAASGRTFSAYAMGWYRQAPGKERELVAAISRSGGSTYYADSVKGRFTISRDNAKNTVYLQMNSLKPEDTAVYYCAAKGGSGLYYWGQGTQVTVSS | high polyreactivity
QVQLVESGGGLVQAGGSLRLSCAASGIIFPFYVMGWYRQAPGKERELVAAITWSGDGTYYADSVKGRFTISRDNAKNTVYLQMNSLKPEDTAVYYCAAQWYYGGVKYYYWGQGTQVTVSS | low polyreactivity
QVQLVESGGGLVQAGGSLRLSSAASGSIFRWYAMGWYRQAPGKERELVAAISRGGRTNYADSVKGRFTISRDNAKNTVYLQMNSLKPEDTAVYYCNKVLRNYSSTGVISVLTDYDYWGQGTQVTVSS | high polyreactivity

Sequence | polyreactivity (PSR sort gate)
QVQLVESGGGLVQAGGSLRLSCAASGSTFSSYAMGWYRQAPGKERELVAAISTRSGSTYYADSVKGRFTISRDNAKNTVYLQMNSLKPEDTAVYYCAADGFYYDDGYWGQGTQVTVSS | low polyreactivity
QVQLVESGGRLVQAGGSLRLSCAASGIIFRFYPMGWSRQAPGKERELVAAIRTSGGSTYYADSVKGRFTISRDNAKNTVYLQMNSLKPEDTAVYYCAAGPRAYSYRIYALYYWGQGTQVTVSS | high polyreactivity
QVQIVESGAGLVQAGGSLRLSCAPSGRIFVTNAMGWYRQSPGKERELGAAITSGGSTYYADSVKGRFTISRDNAKNNVYLQMNSLKPEDTAVFYCARPVFSQRYVTTRYDYWGQGTQVTVSS | low polyreactivity
QVQLVESGGGLVQAGGSLRISCAASGSIFSWKDMGWYRQAPGKERELVAAITSGGSTYYADSVKGRFTISRDNAKNTVYLQMNSLKPEDTAVYYCAAVFLLFGFEWSYDYWGQGTQVTVTS | low polyreactivity
QVQLVESGGGLVQAGGSLRLSCAASGRTFTFYTMGWYRQAPGKERELVARITGGGSTYYADSVKGRFTISRDNAKNTVYLQMNSLKPEDTAVYYCAAASGTKRLYRGTRGDYWGQGTQVTVSS | low polyreactivity
QVQLVESAGGLVQAGASLRLSCAASGFIFRYNTKGWYRQAPGKEMELVATINRSGGSTYYADSVKGRFTISRDNAKNTVYLQMNSLKPVDTAVYYCAAVSLQPYYNAGATWDGDYWGQGTQVTVSS | high polyreactivity
QVQLVESGGGLVQAGGSLRLSCAAYGSTFIAYAMGWYRQAPGKERELVAAITRGGSTNYADSVKGRFTISRDNAKNTVYLQMNRLKPEDTAVYYCAADRSWGYWGRSRYDYWGQGTQVTVSS | high polyreactivity
QVQLQERAGGLVQAGGSLRQRCSASGYISCDASMGWYRQAPGKERELAASITKGSSTKYADIVKGRFTFRDNAKNTVYLKMNSLKPEDTAVCYCAVTYPYWGDYTYWGQGTQVTVSS | low polyreactivity
QVHLVESGGGLVQAGGSLRLSCAASGGTDVGYAMGWYRQAPGKEMELDATITRRGGNTYYADSVKGRFTISRDNAKNTVYLQKNSLKPEDTAVYYCAARKKGSRVGYDYWGQGTQVTVSS | high polyreactivity
QVQLVESGGGLVQAGGSLRLSCAASGSILLGYDLGWYRQAPGKERELVASIDTNGGSTYYADSVKGRFTISRDNAKNTVYLQMNSLKPEDTAVYYCNADPSFVGGTYDYWGQGTQVTVSS | low polyreactivity
QVQLVESGGGLVQAGGSLRLSCAASGSTFYRNAMGWYRQAPGKERELVATISTGGVSTYYADSVKGRFTISRDNAKNTVYLQMNSLKPEDTAVYYCAKRTVYLSNLDYWGQGTQVTLSS | low polyreactivity
QVQLVESVGGLVQAGGSLRLSCAASGFIYGWNAMGWYRQAPVKERELVASIRSSGGTTYADSVKGRFTISRDNAKNTVYLQMNSLKAEDNAVYYCARRVLGLLELDYWGQGTQVTVSS | low polyreactivity
QVHLVESGGGLVQAGGSLRLSCAASGSTFGYYAMGWYRQAPGKEREFVAAISSSGGSTYYADSVKGRFTISRDNAKNTVYLQMNSLKPEDTAVYYCARVGFPGFYWGQGTQVTVSS | high polyreactivity
QVQLVESGGGLVQAGGSLRLSCAASGSIFTTNAMGWYRQAPGKERELVAAISSRGTSTYYADSVKGRFTISRDNAKNTVYLQMNSLKPEDTAVYYCPNPYGYWGQGTQVTVSS | high polyreactivity
QVQLVESGGGLVQAGGSLRLSCAASGSTFVYYAMGWYRQAPGKERALVASITTSAGSTYYADSVKGRFTISRDTAKNSVYLQMNSLKPEDTAVYYCNARITITYYYWGQGTQVTVSS | high polyreactivity
QVQLVVSGGGLVQAGGILRFSCAASGRTIWYNAMGWYRQAPGKERELVASISRSGGSTYYADSVKGRFTISRDNAKNTVYLQMNSLKPEDTAVYYCAAESFDYTTWYGYWGQGTQVTVSS | high polyreactivity
